The numbers were not newly measured in paper PMC7801465, which cites them from elsewhere.

For the data set, the target named is SARS-CoV-2 spike (SARS-CoV-2) (UniProt P0DTC2).

Regarding Basigin (from UniProt P35613), the Kd is 185 nM.
